# Assay results from patent US20040087767.
# Target: A-183-CS-Z-fusion peptide, P38507
protein,measurement,value
Factor VIIa (protein) ANAFLEELRPGSLERECKEEQCSFEEAREIFKDAERTKLFWISYSDGDQCASSPCQNGGSCKDQLQSYICFCLPAFEGRNCETHKDDQLICVNENGGCEQYCSDHTGTKRSCRCHEGYSLLADGVSCTPTVEYPCGKIPILEKRNASKPQGRIVGGKVCPKGECPWQVLLLVNGAQLCGGTLINTIWVVSAAHCFDKIKNWRNLIAVLGEHDLSEHDGDEQSRRVAQVIIPSTYVPGTTNHDIALLRLHQPVVLTDHVVPLCLPERTFSERTLAFVRFSLVSGWGQLLDRGATALELMVLNVPRLMTQDCLQQSRKVGDSPNITEYMFCAGYSDGSKDSCKGDSGGPHATHYRGTWYLTGIVSWGQGCATVGHFGVYTRVSQYIEWLQKLMRSEPRPGVLLRAPFP,"cleavage of the fusion peptide by FVIIa (HPLC, SDS-PAGE, N-terminal sequencing, mass spectrometry)","the fusion peptide was cleaved after the putative P1 arginine only under enzymatically favorable conditions (sTF, pH 8.5); no cleavage was observed at pH 6.0 and the absence of sTF"
